Experiment: soluble on expression in E. coli; label from the status in PepcDB or PDB records

Sequence | soluble on expression in E. coli
MAVVAHTEEDVKLLARLMRAEAEGDGRLGMLMVGNVGVNRVIADCLDFRGIRSIRQMVFQSPGGFEAVQKGYFYQRAREVDIGLARQVLRGWRYHPATNALWFFKPPEGQECPPQWFNQWNVGRYKSHCFFAPTPSDCPRVY | not soluble
MGSDKIHHHHHHMRKDVLEGVLLHIMNEIHPNFAALAKQYNCDYRTVKRYYEAGLTGDLDKLRERKPSVPPLLHGFEEIIRDKLELNCSAASIFYFLGKKDYKGSYTTIKRYCRKYREEKVQKATIRIETTPGLSAQVDWKENVKMVSRDGEVFYFNIFLYILGYSRMKYLELTFDRTQPTVFQCLVNAFEYCGNGIPQEIWFDNMKTVVDRSKSQFTQTVFNEKFRQFAKDAGFHPIACRPFRPQTKGKVEALARTVERLMVFNYEFTDVQELKQIIYELMQDLNGSVSQAIHNKPTVLLKEELPILAPIHRLELLSYVSRNKRLLRKVSMESMVQYQNAKYSVPVKYIGKEVTLDIRRDNLFVWYGDKCIRTHPISEKALNYQREDSLEILRSDVFKYLEDEELERFVDDNLHAYDDL | not soluble
MKFLQFALLFFIICITTTDASKKTQRVLKKVGKRFSLSEFGVVQRLDYMWRTAETVEAARNHSAELVARLLLSQSSADNLKFQESADILYSLMDNNFEGKICGGDETLNFYQMSDYWKRQRKTYRRNEKENVTWRAYPIEDNAYNKFMVRFNSKSTWGYSATMIYVVHMRLLGEKKYSNYTLTKIEEVGACTEYGGVSLENTNLYELDPERLETRDKLLKHLQELFYTEQKVSEIPFDWIYSSASEKELKIEVCHGTELKKMAKKDFIKWWEWFQMMCRPVKGENEHTLVQITGGVYDRLVFRVTMLVHVGTEDIHPTEEFSFKLQFKYDVHGDKEWLINKFEVMCPTIAVPEADLMKKHALVYREIIGSRLQLMVNNPELWYNFAEAIVALTSPTYEVENCAGKGEEMEKGTDMYQLKHTFWKLNKDTHGRMEGYTLGKKNDISETGEKMWARIRIIWTPGNDKLVYDSRWTFYLEWNSDLQAFTIYKMILQCPTVARIGEIKYYSSLNKPTTNTTSQ | not soluble
MGSDKIHHHHHHMKVFVTGATGFIGASIARELLKDGCHVRVLARPGSDRRNLDGLDVEVCEGDLCSPESLDRGVKGCEVLYHAAADYRLWTRNPAAMYAANVEGTRHVLDAALRHGVSRVVYTSSVGTLGNPGDGTPGTEATPVTFADMVGDYKKSKFLAEREAETFLARGLPLVIVNPSTPVGPHDVKPTPTGKIIVDFLNRAMPAYLDTGLNIIDVEDCAQGHILAAQHGRIGEKYILGHENLTLRQIFSLLETVTGLAAPKVRLPYLPILAAAYANEALSRITGREPLIPLAGVQMARKFMYFDSSKAVKELGLPQRPAVEALGRAVEWFRANGYVR | not soluble
MSDVPDDANAGCPGTGSAGAGKASGCAGCPNQGSCATGQGPPPDADVPKIQDRFSRIKHKILILSGKGGVGKSTLTSNLARALASDPSKQVAILDVDICGPSQPRMMGVEDEEVHNSADGWTPVGIQPNLTLMSIAFLLGDKNDAVIWRGARKNGMIKQFLKDVDWGEVDYLLIDTPPGTSDEHISLVQFLLQAGPLDGALIVSTPQEVSLLDVRKEVSFCVKTKVPILGVVENMARFVCPNCAHTTLLFPTSTGGAEQMCKDSNLELLAQLPLEPALAKALDNGEDFFETNPDSTLAKSFLDLAEKVKAKLV | not soluble
MSMQHESPIKRRPSTRIYVGDVPIGDGAPIAVQSMTNTRTTDVAATVAQIKSLEKVGADIVRVSVPTMEAAEAFKLIKQQVSVPLVADIHFDYRIALKVAEYGVDCLRINPGNIGNEARIRSVVDCARDKGIPIRIGVNGGSLEKDLQLKYGEPTPEALVESAMRHVDILDRLNFDQFKVSVKASDVFLAVDSYRLLAKKIDQPLHLGITEAGGARAGSVKSAVGLGMLLAEGIGDTLRISLAADPVEEIKVGFDILKSLRIRSRGINFIACPSCSRQEFDVIGTVNALEQRLEDVLTPMDVSIIGCVVNGPGEAEVSHLGLAGSNKKSAFYEDGVRQKERFDNDDLVAQLEAKIRAKAARLDEKNRIDIKHVEQD | not soluble
MGSDKIHHHHHHMDISGRDVETRLTLAREFMSGVDELPTVPDIVLRIAGKLNDPDVAIDEVADLLLQDQVLTARVVHLANSPLYSAARPISSIRDAVIYLGLDLLREAIFTCAIVDLFKTGKGPLNRSTLWAHSLGVARIAKLIAERTGFLNPVNVYVAGLLHDVGEVFINFFRGKEFSQVVTLVDEEKITFGQAEERLFGTSHCEVGFALAKRWSLNEFICDTILYHHDIEAVPYKQAAIVAMVAFADEYCTLRRLGFEGHKPVDSVRTLLENHPSWGVIRRSLGGSDFDEKLIVAELDSSIVEIRAAVDELFLL | not soluble
MGSDKIHHHHHHMPIAIYQGHHHSLAPADINIVIDVIRAFTVAHYAFIGGAKEILLVRTADEAFALKDTYPDYVLTGEEKGVGISGFDLDNSPKRMAGQNMTDKSLIQKTTNGVTAALGALNAKHLFVTGFSNAKTTAQHVKKLVANDCVINIVASHPSGDDDMACAEYIKGIIEGTNVVTAAEAIERIKGSSVAEKFFDCRQPLFDSEDIVYCTKELTGDFVMKVKQDGEVPTIERVII | not soluble
MGKTFTVGSLKHAVRSSERPISAAPPKPDGPSAVRPSVIQIEQKGKTFTVQPAPGVSLLDAALGQGVLLDHKCKKGTCGRCMVTVLAGAHLLAPKTRREREKTDQPAKRLACQAQIQ | not soluble
MEKKTIVLGVIGSDCHAVGNKILDHSFTNAGFNVVNIGVLSSQEDFINAAIETKADLICVSSLYGQGEIDCKGLREKCDEAGLKGIKLFVGGNIVVGKQNWPDVEQRFKAMGFDRVYPPGTSPETTIADMKEVLGVE | soluble
MSEIAMHVTAKPSSFQCNLKCDYCFYLEKESQFTHEKWMDDSTLKEFIKQYIAASGNQVYFTWQGGEPTLAGLDFFRKVIHYQQRYAGQKRIFNALQTNGILLNNEWCAFLKEHEFLVGISIDGPQELHDRYRRSNSGNGTFAKVIAAIERLKSYQVEFNTLTVINNVNVHYPLEVYHFLKSIGSKHMQFIELLETGTPNIDFSGHSENTFRIIDFSVPPTAYGKFMSTIFMQWVKNDVGEIFIRQFESFVSRFLGNGHTSCIFQESCKDNLVVESNGDIYECDHFVYPQYKLGNINKSELKTMNSVQLTAQKKRISAKCQQCAYKPICNGGCPKHRITKVNDETVSYFCEGYKILFSTMVPYMNAMVELAKNRVPLYHIMDVAKQMENN | not soluble
SEKLINRVGPNGESRAQAVTSDQEKRLLHQLREITRVMKEGKFIDTSPEKEAEEAPYMEDWEGYPEETYPIYDLSDGIKRRQETILVDYPDLKEPSAEEIAEQMGEIEEEGSERLSWDHLPTDPGAQKDNSVAPCDPKPESCSCCVHEEEDPAVLAENAGFSADGYSEQEEATKENLPQDFTNEGLGVSTDNAHVGGMLRKRNPQGFE | soluble
RMEIVKIPVVVHVVWNEEEENISDAQIQSQIDILNKDFRKLNSDVSQVPSVWSNLIADLGIEFFLATKDPNGNQTTGITRTQTSVTFFTTSDEVKFASSGGEDAWPADRYLNIWVCHVLKSEIGQDILGYAQFPGGPAETDGVVIVDAAFGTTGTALPPFDKGRTATHEIGHWLNLYHIWGDELRFEDPCSRSDEVDDTPNQADPNFGCPSYPHVSCSNGPNGDMFMNYLDYVDDKCMVMFTQGQATRVNACLDGPRSSFLA | soluble
MSLIPLRQNIASMKGYIPGYQPPDIASWIKLNTNENPYPPSPEVVKAILEELGPDGAALRIYPSASSQKLREVAGELYGFDPSWIIMANGSDEVLNNLIRAFAAEGEEIGYVHPSYSYYGTLAEVQGARVRTFGLTGDFRIAGFPERYEGKVFFLTTPNAPLGPSFPLEYIDELARRCAGMLVLDETYAEFAESNALELVRRHENVVVTRTLSKSYSLAGMRIGLAIARPEVIAALDKIRDHYNLDRLAQAACVAALRDQAYLSECCRRIRETREWFTTELRSIGYDVIPSQGNYLFATPPDRDGKRVYDGLYARKVLVRHFSDPLLAHGMRISIGTREEMEQTLAALKEIGEGHHHHHH | soluble
GSHMASMTGGQQMGRGSMLPRLICINDYEQHAKSVLPKSIYDYYRSGANDEETLADNIAAFSRWKLYPRMLRNVAETDLSTSVLGQRVSMPICVGATAMQRMAHVDGELATVRACQSLGTGMMLSSWATSSIEEVAEAGPEALRWLQLYIYKDREVTKKLVRQAEKMGYKAIFVTVDTPYLGNRLDDVRNRFKLPPQLRMKNFETSTLSFSPEENFGDDSGLAAYVAKAIDPSISWEDIKWLRRLTSLPIVAKGILRGDDAREAVKHGLNGILVSNHGARQLDGVPATIDVLPEIVEAVEGKVEVFLDGGVRKGTDVLKALALGAKAVFVGRPIVWGLAFQGEKGVQDVLEILKEEFRLAMALSGCQNVKVIDKTLVRKNPLAVSKI | soluble
MGSDKIHHHHHHMSGTLITSDVDVDAHGKQQAYLRVPHSVHRSAYGWIPVPIAVIRNGDGPTLVISAGVHGDEYEGQIAVATLIRTLDATDIRGRLILLPMVNVPAAEAGCRTSPIDAGNLNRLYPGDPKGMPSQMIAHFHEEVILPLADYAVDLHSGGSSLIYPATVMRGPSHSPQEEDGLATLVDAFDLPYTWVFQGGGGRDSTARTAMGAANRKGVINVMAELGGAGCVTPDVLHRTERGLRRILHAVGMLPGYVPDGAQGTRAVSVQGSVYAFETGVFEPLKSIGGDVVKGEAVAHIHHPETPGKAPDVVLSPHAGMVLAMRAMAQVRRGDALYQIAADAG | not soluble
MKVSKIYTTIDAHVAGEPLRIITGGVPEIKGETQLERRAYCMEHLDYLREILMYEPRGHHGMYGCIITPPASAHADFGVLFMHNEGWSTMCGHGIIAVITVGIETGMFEVTGEKQKFIIDSPAGEVIAYATYSGSEVESVSFENVPSFVYKKDVPIKIDSYEFQVDIAFGGAFYAVVDSKEFGLKVDFKDLSAIQMWGGKIKHYIESKMEVKHPLEEGLKGIYGVIFSDDPKEKDATLRNVTIFADGQVDRSPCGTGTSARIATLFAKDALQKGEIFVHECITDGKFEGEVLSVTAVHTYEAVVPKVTGNAFITGFHQFVVDPRDDLNRGFLLGLEHHHHHH | not soluble
MGSDKIHHHHHHAQQSSGDYYEGLSRKIGFSQMIPPHGLEITYDKTVHIIFPSPVRYVDLGSPNLIAGKADGAENVIRVKATRKHFRSETNMSVITEDGNFYTFNVKYADEPLLLNVEMCDFIHDGESVNHPNNAMEIYLQELAGESPRLVRLIMKSVYMQDKRKVKHVGSKRFGVQYLLKGLYAHGELLYFHTEVKNATHVPFDVDFVTFKIVDKKIVKRTAMQEQVIYPLRAFNYVTRVDGKKNERTVFALPKFTIPDGKKLVVEMYEKQGGRHQSFEVENEDLVRAGTVNELKVR | not soluble
MSLRIAIIITQKTNDLHATVPCFLWRKARYAVDLISAEAKASIMLEMGIHVRCDNTLSKTNFNQYTAAFIPHGNTTRLVEIDKLRKDLEKFVYKPKGPMRWLFSSGNGACVLKEFDLIAPDQLVTVQNEKEMVKLLGKNFIKQPVHVDKNIISCANSCGLTKFSFKVIEELSGIELARKTANLVDHIYKGEGHHHHHH | soluble
MDHPVQLSIENPAVSMDSTGQILWAVQSEIQAVYLRSLFEQKEANDGERLTLSVKNLGSSEISPQTLAHSSNGHFFMACGDGKYIVYTYKQYDAIALKIRHYGQGLEFVWAAHPNMFAVRESATNVKIKKNFKDHKSIRSDMMLEGISGGPLLALRSNDSLCFFDWESAALVRRIEITSKSVYWSDNREMVAICGDDSFYVFKYSAEAVANATEVTEDGIEDAFKVIGEQAEAVETGFWIGDCFIFTTALTINRINHYAGGEIVTVAHVDRPLCLLGYMAEDSRVYAVDKDLNVISYELFQSDLEYQTATMRRDIGTRGGPQICRICRLPSSANLPNLPSTANFKKVDLPNLPSSANFEICRTQYNFD | not soluble

Reference: the DeepSol protein solubility set
